This series concerns the target T1, UHRF1 wild-type (human) (UniProt Q96T88).
T1 sequence: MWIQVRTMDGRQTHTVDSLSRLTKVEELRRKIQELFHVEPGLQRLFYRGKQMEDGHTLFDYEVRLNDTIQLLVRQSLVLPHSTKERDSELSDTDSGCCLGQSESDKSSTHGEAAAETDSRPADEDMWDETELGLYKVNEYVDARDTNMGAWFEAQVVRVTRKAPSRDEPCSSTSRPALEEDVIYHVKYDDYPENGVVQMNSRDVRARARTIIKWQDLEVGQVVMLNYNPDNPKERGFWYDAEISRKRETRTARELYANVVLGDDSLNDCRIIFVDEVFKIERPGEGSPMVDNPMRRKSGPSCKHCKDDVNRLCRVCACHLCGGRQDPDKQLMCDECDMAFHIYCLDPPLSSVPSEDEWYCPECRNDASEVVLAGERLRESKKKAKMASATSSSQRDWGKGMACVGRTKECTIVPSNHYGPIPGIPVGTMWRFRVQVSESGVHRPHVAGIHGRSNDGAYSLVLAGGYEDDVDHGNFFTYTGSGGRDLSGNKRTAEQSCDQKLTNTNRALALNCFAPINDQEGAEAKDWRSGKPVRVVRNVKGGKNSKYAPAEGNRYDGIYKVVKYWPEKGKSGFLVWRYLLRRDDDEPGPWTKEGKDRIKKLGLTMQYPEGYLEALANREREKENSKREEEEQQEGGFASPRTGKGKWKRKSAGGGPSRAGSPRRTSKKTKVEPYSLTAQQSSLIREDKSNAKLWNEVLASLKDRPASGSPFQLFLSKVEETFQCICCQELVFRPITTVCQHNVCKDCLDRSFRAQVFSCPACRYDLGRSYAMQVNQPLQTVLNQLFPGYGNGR
Kind of series: fluorescence polarization. The following applies: 50 mM vs 150 mM NaCl; 5mC at position 6 of strand 2 (GTCAG5mCGCATGG); 25 mM HEPES pH 7.5, 0.05% NP-40, 100 mM NaCl (unless indicated), 10 nM FAM-DNA, 10 min, 25 C; scale: fold affinity difference between 50 and 150 mM NaCl.

In the case of CCATGCGCTGAC (double strand) [HeDNA], the binding signal was 500.

Values taken from paper PMC5012860.
